Key:
P-TEFb (CycT1) = molecular target: T1, P-TEFb (CycT1) (Homo sapiens, UniProt O60563); test: Co-immunoprecipitation of CycT1 from 293T cell lysates; type: binding
T1 construct: endogenous in cells; host or cells: 293T
Excerpt: We next investigated the mechanisms by which HT1 can prevent HIV gene expression.

HIV TAR RNA = test: RNA immunoprecipitation and RT-qPCR with TAR-specific primers in 293T cells; type: binding
Protocol: FIGS. 3A, 3B, 3C and 3D. HT1 prevents Tat from bringing active P-TEFb to TAR. FIG. 3A: HT1 inhibits the kinase activity of P-TEFb subunit CDK9. m:HT1 and/or f:Tat were transiently expressed in 293T cells. Cell lysates were used for IP using anti-Myc Ab (lanes 2-4), or control IgG (lane 1). Immunoprecipitates were incubated with ATP and recombinant GST-CTD proteins for in vitro kinase assay. Six replicate experiments were performed, and mean relative kinase activities are shown in the bar graph to the right. FIG. 3B: HT1 binds to TAR. m:HT1 or m:Tat (or empty vector, EV, as a control) was transiently co-expressed with TAR RNA-expressing pU16TAR in 293T cells. Cell lysates were used for IP using anti-Myc Ab or control IgG. RNA was purified from the immunoprecipitates and submitted to RT-qPCR using TAR-specific primers. Relative TAR enrichment was calculated as qPCR count using anti-Myc Ab minus using IgG, and normalized to EV. Error bars represent standard deviation from triplicate qPCR assays. […] Error bars represent standard deviation from triplicate qPCR assays. FIG. 3D: HT1 competes with Tat for TAR binding. m:HT1 and/or f:Tat were transiently co-expressed with TAR RNA-expressing pU16TAR in 293T cells. Cell lysates were used for IP using anti-Myc Ab or control IgG. RNA was purified from the immunoprecipitates and submitted to RT-qPCR using TAR-specific primers (upper panel). Relative TAR enrichment was calculated as qPCR count using anti-Myc Ab minus using IgG, and normalized to EV. Error bars represent standard deviation from triplicate qPCR assays.
Finally, since HEXIM1 ARM resembles the TAR-binding domain from Tat, we investigated whether HT1 could bind to HIV TAR. m:HT1 or m:Tat was co-expressed in 293T cells with TAR RNA, expressed under RNA Polymerase III dependent H1 promoter, and immunoprecipitated using anti-Myc Ab or IgG as a control. TAR RNAs co-immunoprecipitated with HT1 or Tat were quantified by RT-qPCR analysis. […] To test whether HT1 affects Tat-TAR interactions, increasing amounts of m:HT1 were also co-expressed with a fixed amount of f:Tat and TAR. […] As expected, HT1 also bound to endogenous 7SK snRNA.

[1] = system: host cell gene expression in 293T cells; test: mRNA-seq analysis in 293T cells; type: cell-based
Excerpt: The specificity of HT1 was further investigated by mRNA-seq analysis in 293T cells. Only 48 genes were differentially expressed upon ectopic expression of HT1, while knocking out CycT1 as a control impacted 1673 genes.

[2] = system: HIV reactivation in J-Lat 9.2 cells; test: HIV reactivation in J-Lat 9.2 latent infection model, FACS of GFP positive cells; type: cell-based; settings: PMA 100 nM
Excerpt: FIGS. 4A and 4B. Stable expression of HT1 inhibits HIV reactivation. FIG. 4A: Stable expression of HT1 inhibits HIV reactivation from 2D10 cells. 3f:HT1 was stably expressed in 2D10 cells (D-HT cells). […] Error bars represent standard deviation from triplicate FACS analysis. FIG. 4B: Stable expression of HT1 inhibits HIV reactivation from J-Lat 9.2 cells. 3f:HT1 was stably expressed in J-Lat 9.2 cells (L-HT cells). […] Error bars represent standard deviation from triplicate FACS analysis.
To test the effect of HT1 on HIV-1 in T-lymphocyte derived cells, 3f:HT1 was stably expressed in HIV latent infection models 2D10 and J-Lat 9.2 cells (D-HT and L-HT cells respectively), which carry replication-defective, GFP-flagged HIV proviruses. In both 2D10 and J-Lat 9.2, the basal HIV transcription level is undetectable, as measured through GFP expression. Compounds such as the PKC agonist PMA, the histone deacetylase inhibitor SAHA or the BET bromodomain inhibitor JQ1 reactivate HIV transcription and increase GFP-positive cells detected by FACS analysis. 2D10 cells are more sensitive to HIV reactivation than J-Lat 9.2 cells, though they harbor a mutation in the N-terminal sequence of Tat (H13L). 2D10 and D-HT cells were incubated for 24 hrs with PMA (10 nM), SAHA (5 μM) or JQ1 (1 μM) and GFP positive cells were detected by FACS analysis. […]

HIV-1 NL43 = test: Spreading infection with HIV-1 NL43, Gag p24 ELISA in supernatants; type: cell-based; settings: 4 dpi
Excerpt: FIGS. 5A, 5B, 5C, and 5D. Stable expression of HT1 inhibits HIV replication. FIG. 5A. Stable expression of HT1 inhibits HIV-1 replication in C-HT cells. 1E+06 HT1-expressing CEM-HT cells and e control CEM cells were challenged by HIV-1 NL43 infection. FIG. 5B. Stable expression of HT1 inhibits HIV-1 replication in MO-HT cells. 1E+06 HT1-expressing MOLT4-HT cells, and control MOLT4 cells were challenged by HIV-1 NL43 infection. FIG. 5C. Stable expression of HT1 inhibits HIV-1 replication in MT-HT cells. 1E+06 HT1-expressing MT4-HT cells, and control MT4 cells were challenged by HIV-1 NL43 infection. In each of FIGS. 5A, 5B, and 5C, virus production was assessed by Gag p24 ELISA in supernatants when cells were passaged at days 0, 2 and 4, and plotted. Error bars represent standard deviation from triplicate experiments. FIG. 5D: Stable expression of HT1 doesn't inhibit early steps of HIV-1 infection in C-HT, MO-HT, and MT-HT cells. Single-round infection assays were performed in the same conditions as in FIG. 5A-C above, but using replication-defective HXB2 Env-pseudotyped HIV-1 NL43ΔenvLuc. The relative amount of HIV DNA integrated in the cells' genomic DNA was assessed after 24 h by qPCR. Error bars represent standard deviation from triplicate experiments.
On 2 dpi, virus production was detected from CEM, MOLT4 and MT4 cells and reached around 20 (CEM, MT4) to 110 (MOLT4) ng/mL p24 concentration in the supernatant on 4 dpi.

T1 sequence (O60563 whole entry): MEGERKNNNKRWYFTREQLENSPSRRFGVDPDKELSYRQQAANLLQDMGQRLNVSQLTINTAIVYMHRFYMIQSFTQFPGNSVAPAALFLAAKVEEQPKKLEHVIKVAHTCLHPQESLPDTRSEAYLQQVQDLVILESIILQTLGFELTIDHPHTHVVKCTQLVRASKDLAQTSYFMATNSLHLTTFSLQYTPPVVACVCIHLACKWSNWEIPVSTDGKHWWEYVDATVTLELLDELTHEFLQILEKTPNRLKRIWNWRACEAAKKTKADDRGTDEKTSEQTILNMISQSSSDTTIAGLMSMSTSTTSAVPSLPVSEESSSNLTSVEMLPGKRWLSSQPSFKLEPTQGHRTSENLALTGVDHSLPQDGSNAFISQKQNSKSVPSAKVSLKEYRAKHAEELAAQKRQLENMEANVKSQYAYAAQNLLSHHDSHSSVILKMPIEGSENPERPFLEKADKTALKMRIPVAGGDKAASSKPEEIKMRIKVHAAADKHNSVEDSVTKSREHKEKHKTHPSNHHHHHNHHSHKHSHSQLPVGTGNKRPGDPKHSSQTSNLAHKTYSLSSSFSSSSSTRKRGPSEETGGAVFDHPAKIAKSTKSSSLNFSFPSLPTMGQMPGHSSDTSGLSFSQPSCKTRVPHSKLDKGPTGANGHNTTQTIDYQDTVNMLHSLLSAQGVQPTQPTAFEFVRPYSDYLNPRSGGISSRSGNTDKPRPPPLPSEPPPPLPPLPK
T1 sequence (P50750 whole entry partner): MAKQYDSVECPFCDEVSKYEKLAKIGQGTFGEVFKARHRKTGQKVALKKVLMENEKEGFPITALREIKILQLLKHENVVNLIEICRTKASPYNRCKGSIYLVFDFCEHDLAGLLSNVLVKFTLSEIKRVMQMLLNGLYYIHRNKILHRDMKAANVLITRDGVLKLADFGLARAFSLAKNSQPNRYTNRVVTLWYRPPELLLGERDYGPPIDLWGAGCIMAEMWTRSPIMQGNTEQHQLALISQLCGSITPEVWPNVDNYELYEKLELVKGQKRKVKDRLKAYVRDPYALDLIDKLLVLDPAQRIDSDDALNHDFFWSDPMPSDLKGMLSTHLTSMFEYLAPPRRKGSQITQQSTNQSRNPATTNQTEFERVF

B1: HT1 (protein)
chain: KKKHRRRPSKKKRHWKPYYKLTWEEKKKFDEKQSLRASRIRAEMFAKGQPVAPYNTTQFLMDDHDQEEPDLVDMEPVDPYLEPWKHPGSQPRTACNNCYCKKCCFHCYACFTRKGLGISYG
modifications: left off: small tags and cut ends
P-TEFb (CycT1); fixed amount of f:Tat, increasing amounts of m:HT1
  amounts of CycT1 co-immunoprecipitating with f:Tat: decreased
P-TEFb (CycT1); transient expression in 293T cells, anti-Myc or anti-Flag Abs
  binding to CycT1 by co-immunoprecipitation: bound to CycT1
HIV TAR RNA; 293T cells, anti-Myc Ab, RT-qPCR
  immunoprecipitation of TAR RNA (in words): immunoprecipitated TAR
HIV TAR RNA; fixed amount of f:Tat and TAR, increasing m:HT1, anti-Flag Ab
  amounts of TAR RNA co-immunoprecipitated with f:Tat: decreased progressively
HIV TAR RNA; normalized to protein in input lysate
  TAR bound, normalized by protein levels of m:HT1 and m:Tat: at least as much TAR as m:Tat
[1]
  genes differentially expressed upon ectopic expression: 48 genes
[1]; padj=9.6E−06
  7SK RNA fold-change: 1.1
[2]
  decrease of GFP expression in L-HT compared to J-Lat 9.2: 94%
HIV-1 NL43; C-HT cells
  p24 concentration in supernatant: 5.1
HIV-1 NL43; MO-HT cells
  p24 concentration in supernatant: 12 ng/mL
HIV-1 NL43; MT-HT cells
  p24 concentration in supernatant: 1.3 ng/mL

Source: patent US20210261643A1, “INHIBITORS OF P-TEFB MEDIATED TRANSCRIPTION” (The Regents of the University of California, priority 2018, published 2021)
